Residue numbers refer to the chain shown, from its start. Numbers in names are those of the source.
B1: wild-type (WT) RDS (retinal degeneration slow; Peripherin/rds), recombinant in COS-1 cells (natural protein, murine, UniProt P15499 1-346, looked up)
chain: MALLKVKFDQKKRVKLAQGLWLMNWLSVLAGIVLFSLGLFLKIELRKRSEVMNNSESHFVPNSLIGVGVLSCVFNSLAGKICYDALDPAKYAKWKPWLKPYLAVCIFFNVILFLVALCCFLLRGSLESTLAYGLKNGMKYYRDTDTPGRCFMKKTIDMLQIEFKCCGNNGFRDWFEIQWISNRYLDFSSKEVKDRIKSNVDGRYLVDGVPFSCCNPSSPRPCIQYQLTNNSAHYSYDHQTEELNLWLRGCRAALLNYYSSLMNSMGVVTLLVWLFEVSITAGLRYLHTALESVSNPEDPECESEGWLLEKSVPETWKAFLESFKKLGKSNQVEAEGADAGPAPEAG
B2: N244K RDS, recombinant in COS-1 cells (natural protein, murine, UniProt P15499 1-346, looked up)
chain: B1 chain with N244K
B3: N244H RDS, recombinant in COS-1 cells (natural protein, murine, UniProt P15499 1-346, looked up)
chain: B1 chain with N244H

Experiments:
[1] = target: the molecule itself; assay: velocity sedimentation on a sucrose gradient
[2] = target: the molecule itself; assay: non-reducing SDS-PAGE/Western blot

Row | Protein | stoichiometry N [1] | stoichiometry N [2]
1 | B1 | 4 | 2
2 | B2 | 4 | –
3 | B3 | 4 | 2

Reference: PMC2937569 (Biochemistry, 2010)
